Test results taken from patent US20030055219A1 (MYRIAD GENETICS, published 2003).
One block for each binder: values may come before it.

Key:
[1] = target: T1, C-NAP1 amino acids 1000-1300 (two-hybrid bait, fused to the Gal4 DNA binding domain) (yeast, UniProt P04386 1-147; Q9BV73 1000-1300); assay: yeast two-hybrid, bait C-NAP1 AA 1000-1300, prey AA 184-246
T1 construct: range 1-147;range 1000-1300; Bait was expressed in yeast as a C-terminal fusion to Gal4 DBD 1-147 from vector pGBTQ
Text: (§1) A total human brain (person) cDNA library cloned into the yeast expression vector pACT2 was purchased from Clontech (human brain […] cDNA, cat. #HL4004AH), transformed into the yeast strain J692 (genotype of this strain: Mat α, ade2, his3, leu2, trp1, URA3::GAL1-lacZ LYS2::GAL1-HIS3 gal4del ga18Odel cyhR2), and selected for the ability to drive leucine synthesis. In these yeast cells, each cDNA is expressed as a fusion protein with the transcription activation domain of the transcription factor Gal4 (amino acids 768 to 881) and a 9 amino acid hemagglutinin epitope tag. J693 cells (Mat a type) expressing the bait were then mated with J692 cells […] expressing proteins from the brain library. The resulting diploid yeast cells expressing proteins interacting with the bait protein were selected for the ability to synthesize tryptophan, leucine, histidine, and β-galactosidase. DNA was prepared from each clone, transformed by electroporation into E. coli strain KC8 (Clontech KC8 electrocompetent cells, cat. #C2023-1), and the cells were selected on ampicillin-containing plates in the absence of either tryptophane (selection for the bait plasmid) or leucine (selection for the brain library plasmid). DNA for both plasmids was prepared and sequenced by di-deoxynucleotide chain termination method. […]

[2] = target: T2, C-NAP1 amino acids 250-550 (two-hybrid bait, fused to the Gal4 DNA binding domain) (yeast, UniProt P04386 1-147; Q9BV73 250-550); assay: yeast two-hybrid, bait C-NAP1 AA 250-550, prey AA 1314-1575
T2 construct: range 1-147;range 250-550; Bait was expressed in yeast as a C-terminal fusion to Gal4 DBD 1-147 from vector pGBTQ
Text: as §1

[3] = target: T1, C-NAP1 amino acids 1000-1300 …; assay: yeast two-hybrid, bait C-NAP1 AA 1000-1300, prey AA 7-283
Text: as §1

[4] = target: T3, C-NAP1 amino acids 1-300 (two-hybrid bait, fused to the Gal4 DNA binding domain) (yeast, UniProt P04386 1-147; Q9BV73 1-300); assay: yeast two-hybrid, bait C-NAP1 AA 1-300, prey AA 2-76
T3 construct: range 1-147;range 1-300; Bait cDNA was made by PCR from brain cDNA; It was expressed in yeast as a C-terminal fusion to Gal4 DBD 1-147 from vector pGBTQ
Text: as §1

[5] = target: T1, C-NAP1 amino acids 1000-1300 …; assay: yeast two-hybrid, C-NAP1 fragment as Gal4 DBD bait, human brain library prey
Text: In these yeast cells, the bait is produced as a C-terminal fusion protein with the DNA binding domain of the transcription factor Gal4 (amino acids 1 to 147). A total human brain (person) cDNA library cloned into the yeast expression vector pACT2 was purchased from Clontech (human brain […] cDNA, cat. #HL4004AH), transformed into the yeast strain J692 (genotype of this strain: Mat α, ade2, his3, leu2, trp1, URA3::GAL1-lacZ LYS2::GAL1-HIS3 gal4del ga18Odel cyhR2), and selected for the ability to drive leucine synthesis. In these yeast cells, each cDNA is expressed as a fusion protein with the transcription activation domain of the transcription factor Gal4 (amino acids 768 to 881) and a 9 amino acid hemagglutinin epitope tag. J693 cells (Mat a type) expressing the bait were then mated with J692 cells (Mat a type) expressing proteins from the brain library. The resulting diploid yeast cells expressing proteins interacting with the bait protein were selected for the ability to synthesize tryptophan, leucine, histidine, and β-galactosidase. DNA was prepared from each clone, transformed by electroporation into E. coli strain KC8 (Clontech KC8 electrocompetent cells, cat. #C2023-1), and the cells were selected on ampicillin-containing plates in the absence of either tryptophane (selection for the bait plasmid) or leucine (selection for the brain library plasmid). […]

binding result [1]: binds
B1: BAP31 amino acids 184-246 (two-hybrid prey clone, fused to the Gal4 activation domain) (other, yeast;human, UniProt P04386 768-881, looked up, not shown: small tags and cut ends)
chain: ANFNQSGNIADSSLSFTFTNSSNGPNLITTQTNSQALSQPIASSNVHDNFMNNEITASKIDDGNNSKPLSPGWTDQTAYNAFGITTGMFNTTTMDDVYNYLFDDEDTPPNPKKELKADLQKLKDELASTKQKLEKAENQVLAMRKQSEGLTKEYDRLLEEHAKLQAAVDGPMDKKEE
notes: range 768-881;range 184-246; The printed GenBank number 'U5211' looks truncated

binding result [2]: binds
B2: IQGAP2 amino acids 1314-1575 (two-hybrid prey clone, fused to the Gal4 activation domain) (other, yeast;human, UniProt P04386 768-881, looked up, not shown: small tags and cut ends)
chain: ANFNQSGNIADSSLSFTFTNSSNGPNLITTQTNSQALSQPIASSNVHDNFMNNEITASKIDDGNNSKPLSPGWTDQTAYNAFGITTGMFNTTTMDDVYNYLFDDEDTPPNPKKEQPGNTLTEILETPATAQQEVDHATDMVSRAMIDSRTPEEMKHSQSMIEDAQLPLEQKKRKIQRNLRTLEQTGHVSSENKYQDILNEIAKDIRNQRIYRKLRKAELAKLQQTLNALNKKAAFYEEQINYYDTYIKTCLDNLKRKNTRRSIKLDGKGEPKGAKRAKPVKYTAAKLHEKGVLLDIDDLQTNQFKNVTFDIIATEDVGIFDVRSKFLGVEMEKVQLNIQDLLQMQYEGVAVMKMFDKVKVNVNLLIYLLNKKFYGK

binding result [3]: binds
B3: KIAA0174 amino acids 7-283 (two-hybrid prey clone, fused to the Gal4 activation domain) (other, yeast;human, UniProt P04386 768-881, looked up, not shown: small tags and cut ends)
chain: ANFNQSGNIADSSLSFTFTNSSNGPNLITTQTNSQALSQPIASSNVHDNFMNNEITASKIDDGNNSKPLSPGWTDQTAYNAFGITTGMFNTTTMDDVYNYLFDDEDTPPNPKKEKAERLRVNLRLVINRLKLLEKKKTELAQKARKEIADYLAAGKDERARIRVEHIIREDYLVEAMEILELYCDLLLARFGLIQSMKELDSGLAESVSTLIWAAPRLQSEVAELKIVADQLCAKYSKEYGKLCRTNQIGTVNDRLMHKLSVEAPPKILVERYLIEIAKNYNVPYEPDSVVMAEAPPGVETDLIDVGFTDDVKKGGPGRGGSGGFTAPVGGPDGTVPMPMPMPMPSANTPFSYPLPKGPSDFNGLPMGTYQAFPNIHPPQIPATPPSYESV
notes: range 768-881;range 7-283

binding result [4]: binds
B4: HSBP1 amino acids 2-76 (two-hybrid prey clone, fused to the Gal4 activation domain) (other, yeast;human, UniProt P04386 768-881, looked up, not shown: small tags and cut ends)
chain: ANFNQSGNIADSSLSFTFTNSSNGPNLITTQTNSQALSQPIASSNVHDNFMNNEITASKIDDGNNSKPLSPGWTDQTAYNAFGITTGMFNTTTMDDVYNYLFDDEDTPPNPKKEAETDPKTVQDLTSVVQTLLQQMQDKFQTMSDQIIGRIDDMSSRIDDLEKNIADLMTQAGVEELESENKIPATQKS
notes: range 768-881;range 2-76

binding result [5]: binds
B5: FIP-2 amino acids 302-577 (two-hybrid prey clone, fused to the Gal4 activation domain) (other, yeast;human, UniProt P04386 768-881, looked up, not shown: small tags and cut ends)
chain: ANFNQSGNIADSSLSFTFTNSSNGPNLITTQTNSQALSQPIASSNVHDNFMNNEITASKIDDGNNSKPLSPGWTDQTAYNAFGITTGMFNTTTMDDVYNYLFDDEDTPPNPKKELNLQVTSLFKELQEAHTKLSEAELMKKRLQEKCQALERKNSAIPSELNEKQELVYTNKKLELQVESMLSEIKMEQAKTEDEKSKLTVLQMTHNKLLQEHNNALKTIEELTRKESEKVDRAVLKELSEKLELAEKALASKQLQMDEMKQTIAKQEEDLETMTILRAQMEVYCSDFHAERAAREKIHEEKEQLALQLAVLLKENDAFEDGGRQSLMEMQSRHGARTSDSDQQAYLVQRGAEDRDWRQQRNIPIHSCPKCGEVLPDIDTLQIHVMDCII
notes: Prey came from the Clontech human brain library in pACT2; The clone 'included' these residues
